Data published in PMC5800367.

Key:
[1] = target: Recombinant human C5a (Homo sapiens) (UniProt P01031); assay: kinetic exclusion assay
[2] = target: Recombinant Cynomolgus C5adesArg (Macaca fascicularis); assay: SPR
[3] = target: Recombinant human C5a (Homo sapiens) (UniProt P01031); assay: SPR
[4] = target: Serum purified Cynomolgus C5a (Macaca fascicularis); assay: SPR
[5] = target: Serum purified human C5a (Homo sapiens) (UniProt P01031); assay: SPR
[6] = target: Recombinant human C5a (Homo sapiens) (UniProt P01031); assay: DELFIA biochemical competition assay
[7] = target: Serum purified human C5 (Homo sapiens) (UniProt P01031); assay: DELFIA biochemical competition assay

- Kd [1]: 4 pM
- Kd [2]: 10 pM
- koff [2]: 0.000144 s⁻¹
- kon [2]: 1.51e+07 M⁻¹ s⁻¹
- Kd [3]: 14 pM
- koff [3]: 0.000251 s⁻¹
- kon [3]: 1.74e+07 M⁻¹ s⁻¹
- koff [4]: 0.000154 s⁻¹
- kon [4]: 8.08e+06 M⁻¹ s⁻¹
- Kd [5]: 8 pM
- koff [5]: 0.000165 s⁻¹
- kon [5]: 2.18e+07 M⁻¹ s⁻¹
- IC50 [6]: 300 pM
- IC50 [7]: 600 pM
Substance: MEDI7814 (antibody)
